Three molecules from publication doi:10.1101/2022.12.22.521673 (bioRxiv, 2022) can be followed below.

The target of test [1] is Rim4-FLAG (S. cerevisiae) (UniProt P38741). In words: mass photometry.
The target of the next test is T1, Bmh2 (S. cerevisiae (endogenous in meiotic …, UniProt P34730 1-273)).
T1 sequence (looked up): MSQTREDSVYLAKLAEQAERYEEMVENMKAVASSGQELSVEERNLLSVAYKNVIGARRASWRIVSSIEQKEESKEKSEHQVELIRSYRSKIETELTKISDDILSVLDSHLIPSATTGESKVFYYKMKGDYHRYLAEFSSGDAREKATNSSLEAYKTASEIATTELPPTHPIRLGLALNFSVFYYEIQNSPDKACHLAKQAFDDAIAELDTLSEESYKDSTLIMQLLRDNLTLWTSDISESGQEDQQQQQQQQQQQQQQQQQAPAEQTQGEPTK
The experiment in a line: mass photometry.

The target in the next test is T2, recombinant Rim4-6×His (S. cerevisiae, UniProt P38741 1-713).
T2 sequence (looked up): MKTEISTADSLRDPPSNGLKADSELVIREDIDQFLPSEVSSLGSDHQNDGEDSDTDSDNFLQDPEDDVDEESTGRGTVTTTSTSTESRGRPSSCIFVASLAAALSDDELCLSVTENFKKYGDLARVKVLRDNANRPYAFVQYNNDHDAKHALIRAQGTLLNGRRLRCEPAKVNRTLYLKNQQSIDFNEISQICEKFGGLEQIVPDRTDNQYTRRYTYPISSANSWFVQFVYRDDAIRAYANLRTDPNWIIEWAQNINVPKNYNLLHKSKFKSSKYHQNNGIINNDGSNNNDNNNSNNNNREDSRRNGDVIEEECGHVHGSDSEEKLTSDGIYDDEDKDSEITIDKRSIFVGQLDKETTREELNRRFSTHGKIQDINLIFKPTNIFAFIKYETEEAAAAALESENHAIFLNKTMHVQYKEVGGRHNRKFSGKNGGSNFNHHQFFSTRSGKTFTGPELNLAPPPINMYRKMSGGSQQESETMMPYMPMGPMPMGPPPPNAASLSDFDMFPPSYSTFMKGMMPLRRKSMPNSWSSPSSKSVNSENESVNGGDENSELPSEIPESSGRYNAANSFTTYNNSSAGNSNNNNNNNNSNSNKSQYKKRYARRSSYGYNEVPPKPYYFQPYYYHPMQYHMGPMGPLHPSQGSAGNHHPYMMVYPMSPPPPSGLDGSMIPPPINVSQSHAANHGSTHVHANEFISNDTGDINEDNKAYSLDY
In words: pull-down.

The next test has as its target T3, recombinant Rim4-EGFP (S. cerevisiae, UniProt P38741 1-713).
T3 sequence (looked up): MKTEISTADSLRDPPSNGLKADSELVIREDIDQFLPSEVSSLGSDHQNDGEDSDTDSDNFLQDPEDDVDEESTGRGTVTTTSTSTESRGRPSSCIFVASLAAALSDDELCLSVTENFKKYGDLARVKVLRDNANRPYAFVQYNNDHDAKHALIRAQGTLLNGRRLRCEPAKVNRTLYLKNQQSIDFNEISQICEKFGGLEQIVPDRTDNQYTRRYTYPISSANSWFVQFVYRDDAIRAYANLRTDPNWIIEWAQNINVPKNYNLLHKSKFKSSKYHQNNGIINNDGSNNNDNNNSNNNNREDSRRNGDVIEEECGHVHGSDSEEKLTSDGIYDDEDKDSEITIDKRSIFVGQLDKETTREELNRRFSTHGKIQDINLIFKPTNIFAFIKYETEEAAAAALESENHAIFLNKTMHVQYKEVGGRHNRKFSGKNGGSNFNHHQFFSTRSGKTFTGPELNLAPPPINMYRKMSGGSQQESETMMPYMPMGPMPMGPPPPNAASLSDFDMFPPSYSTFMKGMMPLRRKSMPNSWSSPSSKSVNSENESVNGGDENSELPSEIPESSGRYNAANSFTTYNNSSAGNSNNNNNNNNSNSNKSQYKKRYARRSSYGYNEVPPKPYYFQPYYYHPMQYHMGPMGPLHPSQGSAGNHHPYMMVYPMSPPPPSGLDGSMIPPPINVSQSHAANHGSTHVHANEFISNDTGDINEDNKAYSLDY
The experiment in a line: pull-down.

“Bmh2 (from UniProt P34730 1-273) (natural protein)” registered a stoichiometry N in test [1] of 1.

B1: Bmh1 (natural protein, UniProt P29311 1-267, looked up)
chain: MSTSREDSVYLAKLAEQAERYEEMVENMKTVASSGQELSVEERNLLSVAYKNVIGARRASWRIVSSIEQKEESKEKSEHQVELICSYRSKIETELTKISDDILSVLDSHLIPSATTGESKVFYYKMKGDYHRYLAEFSSGDAREKATNASLEAYKTASEIATTELPPTHPIRLGLALNFSVFYYEIQNSPDKACHLAKQAFDDAIAELDTLSEESYKDSTLIMQLLRDNLTLWTSDMSESGQAEDQQQQQQHQQQQPPAAAEGEAPK
For B1, the stoichiometry N (in test [1]; with Bmh2) was 1 throughout.

B2: recombinant Cdc14-FLAG (enzyme, S. cerevisiae, UniProt Q00684 1-551, looked up)
chain: MRRSVYLDNTIEFLRGRVYLGAYDYTPEDTDELVFFTVEDAIFYNSFHLDFGPMNIGHLYRFAVIFHEILNDPENANKAVVFYSSASTRQRANAACMLCCYMILVQAWTPHQVLQPLAQVDPPFMPFRDAGYSNADFEITIQDVVYGVWRAKEKGLIDLHSFNLESYEKYEHVEFGDFNVLTPDFIAFASPQEDHPKGYLATKSSHLNQPFKSVLNFFANNNVQLVVRLNSHLYNKKHFEDIGIQHLDLIFEDGTCPDLSIVKNFVGAAETIIKRGGKIAVHCKAGLGRTGCLIGAHLIYTYGFTANECIGFLRFIRPGMVVGPQQHWLYLHQNDFREWKYTTRISLKPSEAIGGLYPLISLEEYRLQKKKLKDDKRVAQNNIEGELRDLTMTPPSNGHGALSARNSSQPSTANNGSNSFKSSAVPQTSPGQPRKGQNGSNTIEDINNNRNPTSHANRKVVIESNNSDDESMQDTNGTSNHYPKVSRKKNDISSASSSRMEDNEPSATNINNAADDTILRQLLPKNRRVTSGRRTTSAAGGIRKISGSIKK
In the case of B2, the binding result with recombinant Rim4-6×His and with recombinant Rim4-EGFP was “binds” throughout.

The stoichiometry N is a count of units in the complex or per binding partner.
